Assay results taken from PMC7817190 (Proceedings of the National Academy of Sciences of the …, 2020).

T1: His-tagged human recombinant corneodesmosin (His-CDSN) (human, UniProt Q15517 33-529)
T1 sequence (looked up): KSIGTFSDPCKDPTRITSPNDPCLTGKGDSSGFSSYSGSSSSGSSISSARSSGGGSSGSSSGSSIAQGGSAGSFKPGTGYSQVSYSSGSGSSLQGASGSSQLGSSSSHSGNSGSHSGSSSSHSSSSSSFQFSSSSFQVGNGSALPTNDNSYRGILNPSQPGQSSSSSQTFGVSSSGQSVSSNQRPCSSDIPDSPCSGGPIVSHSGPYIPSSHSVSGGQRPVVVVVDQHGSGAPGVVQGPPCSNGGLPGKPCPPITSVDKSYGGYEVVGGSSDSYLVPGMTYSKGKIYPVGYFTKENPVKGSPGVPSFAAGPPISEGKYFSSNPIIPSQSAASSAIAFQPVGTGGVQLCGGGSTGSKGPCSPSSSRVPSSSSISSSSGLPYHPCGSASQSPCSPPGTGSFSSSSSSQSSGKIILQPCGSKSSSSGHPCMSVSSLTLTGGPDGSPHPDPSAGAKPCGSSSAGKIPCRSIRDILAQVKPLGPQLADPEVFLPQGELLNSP


Experiments:
[1] = molecular target: His-tagged human recombinant corneodesmosin (His-CDSN) (human) (UniProt Q15517); test: SPR
[2] = molecular target: T1, His-tagged human recombinant …; test: SPR

| Molecule | Kd [1] | Kd [2] |
| --- | --- | --- |
| recombinant FnBPB N2N3 subdomains with the sequence of the AD08 protein (rFnBPBCC1N2N3) (domain or fragment) | 49.1 µM | – |
| recombinant ClfB N2N3 subdomains with the sequence of the AD08 protein (rClfBCC1N2N3) (domain or fragment) AEPVVNAADAKGTNVNDKVTAKDFQLEKTTFDPNQSGNTFMAANFTVTGQVKSGDYFTAKLPDSVTGNGDVDYSNSNNTMPIADIVNDKNEVVAKATYDILTKTYTFVFTDYVNDKQNINGKFSLPLFTDRAKAPKSGTYDANINIADEMFNNKITYNYSSPIAGIDKPNGANISSQIIGVDTASGQNTYKQTVFVNPKQRVLGNTWVYIKGYQDKIEESSGKVSATDTKLRIFEVNDTSKLSDSYYADPNDSNLKEVTDQFKDKITYKYQNVASINFGDINKTYVVLVEGHYDKTGKNLKTQVIQENVDPATGKDYSIFGWNNENVVRYGGGSADGDSAVN | – | 44.6 µM |
